Ends that are not written are not given here. * marks the point of attachment. Cbz = O=C(OCc1ccccc1)*
T1: r-caspase-3 (His)6 (human, UniProt P42574 29-175; P42574 176-277)
T1 sequence 1: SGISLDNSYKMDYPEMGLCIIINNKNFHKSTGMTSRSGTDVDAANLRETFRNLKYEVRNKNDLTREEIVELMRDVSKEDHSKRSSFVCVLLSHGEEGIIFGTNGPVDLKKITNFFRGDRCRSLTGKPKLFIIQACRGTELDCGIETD
T1 sequence 2: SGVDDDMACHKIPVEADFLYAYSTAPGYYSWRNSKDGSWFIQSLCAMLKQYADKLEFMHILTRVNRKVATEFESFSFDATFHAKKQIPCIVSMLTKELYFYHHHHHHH

T2: affinity purified membrane derived caspase-3 from 697 cell heavy membranes (human, UniProt P42574 14-175; P42574 176-277, limits assumed)
T2 chain 1: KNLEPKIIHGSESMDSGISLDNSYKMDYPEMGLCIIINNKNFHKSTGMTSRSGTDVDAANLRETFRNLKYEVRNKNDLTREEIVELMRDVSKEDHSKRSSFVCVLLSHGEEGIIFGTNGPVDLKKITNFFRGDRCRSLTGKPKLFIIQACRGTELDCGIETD
T2 chain 2: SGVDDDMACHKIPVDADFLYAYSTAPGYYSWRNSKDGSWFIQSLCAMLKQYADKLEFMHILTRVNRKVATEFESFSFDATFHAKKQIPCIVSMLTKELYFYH

T3: 697 Bcl-2 HM (caspase-1 treated) caspase (human, UniProt P42574 14-175; P42574 176-277, limits assumed)
T3 chain 1: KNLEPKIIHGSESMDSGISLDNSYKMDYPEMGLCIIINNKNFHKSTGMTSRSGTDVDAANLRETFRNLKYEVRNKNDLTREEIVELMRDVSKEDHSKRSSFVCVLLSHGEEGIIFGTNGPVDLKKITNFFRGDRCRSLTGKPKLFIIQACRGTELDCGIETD
T3 chain 2: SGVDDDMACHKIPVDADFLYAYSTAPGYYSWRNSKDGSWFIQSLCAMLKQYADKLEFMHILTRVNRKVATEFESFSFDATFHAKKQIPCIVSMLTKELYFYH

T4: 697-neo HM (spontaneous activity) caspase (human, UniProt P42574 14-175, limits assumed)
T4 sequence 1: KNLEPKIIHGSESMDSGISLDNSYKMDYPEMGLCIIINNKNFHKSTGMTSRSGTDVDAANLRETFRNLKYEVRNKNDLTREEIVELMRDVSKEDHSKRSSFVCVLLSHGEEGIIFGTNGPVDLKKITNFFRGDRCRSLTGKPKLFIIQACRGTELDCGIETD
T4 sequence 2: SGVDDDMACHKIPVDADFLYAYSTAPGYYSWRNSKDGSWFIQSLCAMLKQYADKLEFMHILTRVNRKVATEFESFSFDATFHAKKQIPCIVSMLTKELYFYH

T5: 697-neo HM (caspase-1 treated) caspase (human, UniProt P42574 14-175; P42574 176-277, limits assumed)
T5 chain 1: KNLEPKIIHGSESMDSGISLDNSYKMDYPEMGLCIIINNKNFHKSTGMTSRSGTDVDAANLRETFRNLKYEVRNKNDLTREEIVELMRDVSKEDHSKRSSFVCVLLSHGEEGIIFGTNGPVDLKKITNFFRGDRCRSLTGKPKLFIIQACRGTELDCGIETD
T5 chain 2: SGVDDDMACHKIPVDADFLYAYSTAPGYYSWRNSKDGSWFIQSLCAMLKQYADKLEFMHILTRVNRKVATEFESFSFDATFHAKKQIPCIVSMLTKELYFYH


Experiments:
Assay in all cases: cell-based or functional assay
[1] = target: MN9D HM (caspase-1 treated) caspase (mouse)
[2] = target: cortical cell HM (caspase-1 treated) caspase (mouse)
[3] = target: T1, r-caspase-3 (His)6
[4] = target: T2, affinity purified membrane derived …
[5] = target: T1, r-caspase-3 (His)6; remark: listed apart in the source
[6] = target: T3, 697 Bcl-2 HM (caspase-1 treated) caspase
[7] = target: T4, 697-neo HM (spontaneous activity) …
[8] = target: T5, 697-neo HM (caspase-1 treated) caspase

Row | Binder | IC50, inhibition of DEVD-amc cleavage [1] [nM] | IC50, inhibition of DEVD-amc cleavage [2] [nM] | IC50, inhibition of DEVD-amc cleavage [3] [nM] | IC50, inhibition of DEVD-AMC cleavage activity [4] [nM] | IC50, inhibition of DEVD-AMC cleavage activity [5] [nM] | IC50, inhibition of DEVD-amc cleavage [6] [nM] | IC50, inhibition of DEVD-amc cleavage [7] [nM] | IC50, inhibition of DEVD-amc cleavage [8] [nM]
1 | Ac-YVAD-aldehyde [YVAD-ald] | > 10000 | > 10000 | > 10000 |  |  |  |  | 
2 | DEVD-aldehyde [DEVD-ald] | 0.72 | 1 | 1 | 1 | 1 |  |  | 
3 | VEID-aldehyde [VEIDald] |  |  |  | 34 | 32 |  |  | 
4 | Cbz-Glu-Val-Asp-aldehyde (SMILES CC(C)[C@H](NC(=O)[C@H](CCC(=O)O)NC(=O)OCc1ccccc1)C(=O)N[C@H](C=O)CC(=O)O) [ZEVDald] |  |  |  | 32 | 24 |  |  | 
5 | DFLD-aldehyde [DFLD-ald] | 2.5 | 2.3 | 1.5 | 4.7 | 1.1 | 3.6 | 3.4 | 4.5

Reference: patent US20020197702A1 (IDUN PHARMACEUTICALS, published 2002)
